# Test results reported in patent EP4299124A1 (UNIVERSITE DE MONTPELLIER, dated 2024).
# B1: IGF-1251 (IGF-1159 GS IGF-1168) (bispecific antibody)
# chain: QVQLVQSGGGLVQAGGSLRLSCAASGRTFSSFAMAWFRQAPGKEREFVAAISWSGSTGHADSVKGRFTITRDNAKNTVFLQMNSLKPEDTAVYYCALGKGSSYYYSPSGYDYWGQGTQVTVSSGGGGSGGGGSGGGGSQVQLVQSGGGLVQAGGSLRLSCAASVRFFSINTMGWYRQAPGKQRELVADITSSGSTNYADSGKGRFTISRDNAKNTVYLQMNRLKPEDTAVYYCHADYKYTTHNTAWGQGTQVTVSS
# B2: IGF-1159 nanobody (VHH)
# VHH: QVQLVQSGGGLVQAGGSLRLSCAASGRTFSSFAMAWFRQAPGKEREFVAAISWSGSTGHADSVKGRFTITRDNAKNTVFLQMNSLKPEDTAVYYCALGKGSSYYYSPSGYDYWGQGTQVTVSS
# B3: IGF-1252 (IGF-1159 HcAb IGF-1168) (bispecific antibody)
# chain: QVQLVQSGGGLVQAGGSLRLSCAASGRTFSSFAMAWFRQAPGKEREFVAAISWSGSTGHADSVKGRFTITRDNAKNTVFLQMNSLKPEDTAVYYCALGKGSSYYYSPSGYDYWGQGTQVTVSSEPKIPQPQPKPQPQPQPQPQPKPQPKPEPQVQLVQSGGGLVQAGGSLRLSCAASVRFFSINTMGWYRQAPGKQRELVADITSSGSTNYADSGKGRFTISRDNAKNTVYLQMNRLKPEDTAVYYCHADYKYTTHNTAWGQGTQVTVSS
# B4: IGF-1261 (IGF-1168 GS IGF-1168) (VHH)
# chain: QVQLVQSGGGLVQAGGSLRLSCAASVRFFSINTMGWYRQAPGKQRELVADITSSGSTNYADSGKGRFTISRDNAKNTVYLQMNRLKPEDTAVYYCHADYKYTTHNTAWGQGTQVTVSSGGGGSGGGGSGGGGSQVQLVQSGGGLVQAGGSLRLSCAASVRFFSINTMGWYRQAPGKQRELVADITSSGSTNYADSGKGRFTISRDNAKNTVYLQMNRLKPEDTAVYYCHADYKYTTHNTAWGQGTQVTVSS
# notes: Used His-tagged in the assay
# B5: IGF-1201 (IGF-1168 GS IGF-1159) (bispecific antibody)
# chain: QVQLVQSGGGLVQAGGSLRLSCAASVRFFSINTMGWYRQAPGKQRELVADITSSGSTNYADSGKGRFTISRDNAKNTVYLQMNRLKPEDTAVYYCHADYKYTTHNTAWGQGTQVTVSSGGGGSGGGGSGGGGSQVQLVQSGGGLVQAGGSLRLSCAASGRTFSSFAMAWFRQAPGKEREFVAAISWSGSTGHADSVKGRFTITRDNAKNTVFLQMNSLKPEDTAVYYCALGKGSSYYYSPSGYDYWGQGTQVTVSS
# B6: IGF-1262 (IGF-1168 HcAb IGF-1168) (VHH)
# chain: QVQLVQSGGGLVQAGGSLRLSCAASVRFFSINTMGWYRQAPGKQRELVADITSSGSTNYADSGKGRFTISRDNAKNTVYLQMNRLKPEDTAVYYCHADYKYTTHNTAWGQGTQVTVSSEPKIPQPQPKPQPQPQPQPQPKPQPKPEPQVQLVQSGGGLVQAGGSLRLSCAASVRFFSINTMGWYRQAPGKQRELVADITSSGSTNYADSGKGRFTISRDNAKNTVYLQMNRLKPEDTAVYYCHADYKYTTHNTAWGQGTQVTVSS
# notes: Used His-tagged in the assay
# B7: biparatopic IGF1202 (construct IGF1168-linker sequence L1-IGF1159) (bispecific antibody)
# chain: QVQLVQSGGGLVQAGGSLRLSCAASVRFFSINTMGWYRQAPGKQRELVADITSSGSTNYADSGKGRFTISRDNAKNTVYLQMNRLKPEDTAVYYCHADYKYTTHNTAWGQGTQVTVSSEPKIPQPQPKPQPQPQPQPQPKPQPKPEPQVQLVQSGGGLVQAGGSLRLSCAASGRTFSSFAMAWFRQAPGKEREFVAAISWSGSTGHADSVKGRFTITRDNAKNTVFLQMNSLKPEDTAVYYCALGKGSSYYYSPSGYDYWGQGTQVTVSSLEHHHHHH
# Target: T1, rat mGlu2 SNAP-tagged receptor (rat, UniProt P31421 19-872, SNAP tag labelled with SNAP-Lumi4-Tb)
# T1 sequence (P31421 19-872): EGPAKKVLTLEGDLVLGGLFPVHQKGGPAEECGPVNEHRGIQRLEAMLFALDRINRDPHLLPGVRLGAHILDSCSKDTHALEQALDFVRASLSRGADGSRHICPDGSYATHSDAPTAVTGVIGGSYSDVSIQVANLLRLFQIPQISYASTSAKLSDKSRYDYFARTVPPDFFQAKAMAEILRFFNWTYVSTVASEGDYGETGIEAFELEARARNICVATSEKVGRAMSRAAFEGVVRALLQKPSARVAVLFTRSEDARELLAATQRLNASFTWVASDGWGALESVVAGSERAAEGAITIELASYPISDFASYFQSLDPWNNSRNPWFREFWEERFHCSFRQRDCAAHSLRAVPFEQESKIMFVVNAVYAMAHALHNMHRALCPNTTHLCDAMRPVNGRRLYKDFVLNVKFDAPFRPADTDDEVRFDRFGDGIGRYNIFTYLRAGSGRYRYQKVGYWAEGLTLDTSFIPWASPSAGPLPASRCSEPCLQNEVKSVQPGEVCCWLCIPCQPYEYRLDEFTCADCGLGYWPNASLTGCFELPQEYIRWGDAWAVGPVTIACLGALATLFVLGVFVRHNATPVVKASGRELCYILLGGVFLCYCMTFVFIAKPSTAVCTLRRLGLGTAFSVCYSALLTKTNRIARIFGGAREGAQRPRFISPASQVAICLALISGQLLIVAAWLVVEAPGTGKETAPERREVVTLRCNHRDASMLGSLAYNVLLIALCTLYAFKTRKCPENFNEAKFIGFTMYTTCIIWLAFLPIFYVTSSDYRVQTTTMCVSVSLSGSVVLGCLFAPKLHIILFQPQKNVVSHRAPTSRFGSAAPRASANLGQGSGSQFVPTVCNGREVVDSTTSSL
# Experiment: cell-based or functional assay
row,"PAM effect G protein coupling, pEC50 [pEC50]",Binder
1,7.65,B1
2,6.96,B2
3,7.94,B3
4,7.62,B4
5,8.25,B5
6,7.2,B6
7,8.81,B7

# Target: T1, rat mGlu2 SNAP-tagged receptor
# Experiment: TR-FRET on HEK-293 cells with SNAP-tagged rat mGlu2, anti-6His-d2; inactive conformation
row,pKd [pKd],Binder
1,8.54,B1
2,8.49,B3
3,8.95,B5
4,8.87,B7

# Target: T1, rat mGlu2 SNAP-tagged receptor
# Experiment: TR-FRET on HEK-293 cells with SNAP-tagged rat mGlu2, anti-6His-d2; active conformation
row,pKd [pKd],Binder
1,8.99,B1
2,8.46,B2
3,8.77,B3
4,8.51,B4
5,9.34,B5
6,8.23,B6
7,9.27,B7
